Target: T1, recombinant human ST2 Fc chimera (ALX-201-367-C050, Enzo Life Science) (human, UniProt Q01638 19-328)
T1 construct: bought; also called human IL-33 receptor protein; human IL-33 receptor (ST2)
T1 sequence (looked up): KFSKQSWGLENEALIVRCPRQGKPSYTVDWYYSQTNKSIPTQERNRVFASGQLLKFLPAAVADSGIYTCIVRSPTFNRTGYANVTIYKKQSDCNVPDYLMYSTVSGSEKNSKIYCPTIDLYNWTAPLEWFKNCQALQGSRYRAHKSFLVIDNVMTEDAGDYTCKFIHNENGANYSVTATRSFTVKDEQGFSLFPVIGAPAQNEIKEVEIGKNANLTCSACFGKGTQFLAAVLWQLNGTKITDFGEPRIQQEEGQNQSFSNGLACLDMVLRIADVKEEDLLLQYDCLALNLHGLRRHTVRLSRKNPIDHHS
Test: SPR (ProteOn), hIL-33 on chip, ST2 Fc chimera as analyte
From the text: Each peptide was N-terminally biotinylated, and was immobilized as ligand onto a NeutrAvidin sensor chip of a surface plasmon resonance (SPR) system (ProteOn XPR36, available from Bio-Rad Laboratories, Inc.). […] The resulting protein (hIL-33) as a ligand was immobilized onto the SPR sensor chip. Each test antibody, the human IL-33 receptor protein (recombinant human ST2 Fc chimera) (ALX-201-367-C050, available from Enzo Life Science, Inc.), or buffer (0.05% Tween20/PBS) alone was then loaded as an analyte onto the sensor chip containing the ligand immobilized thereon (antibody concentration: […]; flow rate: 100 μl/min), to allow them to bind to the ligand. After washing, the amount of analyte (amount of antibody) bound to the ligand on the sensor chip was measured as RU value.

binding result: binds
B1: mature human IL-33 (residues 112 to 270) N-terminally linked with the Avitag sequence, biotinylated (ligand, not shown: small tags and cut ends)
chain: SITGISPITEYLASLSTYNDQSITFALEDESYEIYVEDLKKDEKKDKVLLSYYESQHPSNESGDGVDGKMLMVTLSPTKDFWLHANNKEHSVELHKCEKPLPDQAFFVLHNMHSNCVSFECKTDPGVFIGVKDNHLALIKVDSSENLCTENILFKLSET
modifications: biotin on the AviTag sequence (biotin ligase reaction)
notes: also called hIL-33

From patent publication US20240002495A1 (MITSUBISHI TANABE PHARMA, published 2024)
